Results taken from patent US6319893A, “Raising blood sugar level in hypoglycemic mammals by administering inhibitors of dipeptidyl peptidase IV” (Probiodrug, priority 1998, dated 2001).

How the values were obtained:
DP IV = DP IV (Homo sapiens, UniProt P27487); assay: MALDI-TOF mass spectra of glucagon solution incubated with DP IV; assay type: biochemical; conditions: 0.14 mmol glucagon solution, 40 mmol TRIS/HCL pH=7.6, 40 nmol DP IV; FIG. 1
serum DP IV = biological target: T1, serum DP IV (Homo sapiens, UniProt P27487); assay: MALDI-TOF mass spectra of a glucagon-serum mixture, serum DP IV-catalysed glucagon cleavage; assay type: biochemical; conditions: no inhibitor, FIG. 2 A
T1 construct: from tissue; host or cells: serum
T1 sequence (P27487 39-766 limits assumed): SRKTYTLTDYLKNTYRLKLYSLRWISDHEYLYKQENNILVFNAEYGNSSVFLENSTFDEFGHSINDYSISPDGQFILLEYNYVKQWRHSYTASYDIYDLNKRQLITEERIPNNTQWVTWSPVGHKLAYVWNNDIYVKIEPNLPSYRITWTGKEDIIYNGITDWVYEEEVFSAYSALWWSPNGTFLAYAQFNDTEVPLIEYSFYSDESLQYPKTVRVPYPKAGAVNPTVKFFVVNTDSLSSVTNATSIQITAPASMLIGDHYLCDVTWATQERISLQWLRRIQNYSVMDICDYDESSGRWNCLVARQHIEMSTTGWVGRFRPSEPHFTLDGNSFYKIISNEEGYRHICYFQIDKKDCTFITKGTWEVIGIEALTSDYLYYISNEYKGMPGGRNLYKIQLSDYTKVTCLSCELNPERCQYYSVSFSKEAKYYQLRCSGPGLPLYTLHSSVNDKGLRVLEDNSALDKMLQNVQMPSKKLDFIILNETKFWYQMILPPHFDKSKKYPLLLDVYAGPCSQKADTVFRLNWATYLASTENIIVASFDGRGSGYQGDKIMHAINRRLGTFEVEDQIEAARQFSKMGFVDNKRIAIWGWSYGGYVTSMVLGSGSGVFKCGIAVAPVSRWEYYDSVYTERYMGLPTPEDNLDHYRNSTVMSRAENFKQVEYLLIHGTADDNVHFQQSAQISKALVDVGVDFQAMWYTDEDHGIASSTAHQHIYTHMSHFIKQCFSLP
From the text: Inhibition of Serum DP IV-catalysed Glucagon Cleavage by the DP IV Inhibitor Isoleticyl-thiazolidine

DP IV, sequence (P27487 whole entry): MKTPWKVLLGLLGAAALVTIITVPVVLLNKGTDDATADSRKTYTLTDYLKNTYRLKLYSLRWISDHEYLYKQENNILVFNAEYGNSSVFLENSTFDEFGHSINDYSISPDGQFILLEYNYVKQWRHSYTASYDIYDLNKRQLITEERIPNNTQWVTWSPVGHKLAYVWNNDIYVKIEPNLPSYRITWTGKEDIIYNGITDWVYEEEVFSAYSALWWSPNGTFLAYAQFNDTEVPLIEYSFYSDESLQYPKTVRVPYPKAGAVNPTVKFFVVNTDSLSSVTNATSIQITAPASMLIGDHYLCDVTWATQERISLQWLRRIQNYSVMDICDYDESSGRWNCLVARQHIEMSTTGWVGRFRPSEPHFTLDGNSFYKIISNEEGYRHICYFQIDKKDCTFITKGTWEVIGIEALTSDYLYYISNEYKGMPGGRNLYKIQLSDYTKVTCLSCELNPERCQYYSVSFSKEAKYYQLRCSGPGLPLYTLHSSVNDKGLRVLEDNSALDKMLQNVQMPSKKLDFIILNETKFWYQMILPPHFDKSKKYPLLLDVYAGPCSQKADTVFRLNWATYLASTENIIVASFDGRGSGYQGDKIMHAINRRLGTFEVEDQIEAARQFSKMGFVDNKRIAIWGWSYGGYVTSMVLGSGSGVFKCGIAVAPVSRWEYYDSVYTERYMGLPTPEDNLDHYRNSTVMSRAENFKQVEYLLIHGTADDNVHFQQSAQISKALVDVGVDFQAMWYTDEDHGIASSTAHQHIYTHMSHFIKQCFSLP

Substance: glucagon
- cleavage of glucagon by DP IV (MALDI-TOF) (DP IV): removal of the dipeptides His-Ser and Gln-Gly occurs sequentially depending upon the incubation time
- hydrolysis of glucagon by serum DP IV (MALDI-TOF) (serum DP IV): serum-DP IV hydrolyses glucagoni
